Results taken from doi:10.1101/2025.03.03.641048.

Target: IE-3 fragment antigen-binding (Fab) region, recombinant, labelled
Experiment: MST

fold higher affinity than MBP-mZP2(T103-Q138): 30 fold
B1: mouse ZP2 N-terminal ZP-N1 domain (mZP2-N1), His-tagged (domain or fragment)
chain: VSLPQSENPAFPGTLICDKDEVRIEFSSRFDMEKWNPSVVDTLGSEILNCTYALDLERFVLKFPYETCTIKVVGGYQVNIRVGDTTTDVRYKDDMYHFFCPAIQ
